Data set [1] concerns the molecule itself. Kind of data set: circular dichroism of fibrils collected by centrifugation.
Data set [2] deals with the molecule itself. Kind of data set: fibril formation seen by negative staining TEM.
Data set [3] deals with the molecule itself. Kind of data set: pelleting by centrifugation + negative staining TEM.
Data set [4] deals with the molecule itself. Kind of data set: SEC. On the technique in general: Size exclusion chromatography separates by hydrodynamic size, large species first.
Data set [5] concerns the molecule itself. Kind of data set: pelleting assay.

Regarding TSTTATVAASAVAAVFA [Cdc19 amyloid core peptide, E380A E392A], in data set [1], the binding result was “binds”. Consider TSTTQTVAASAVAAVFQ [Cdc19 amyloid core peptide, E380Q E392Q], for which the binding result in data set [2] was “binds”.

As to AREAEAAIYHLQLFEELRRLA [PKM2 amyloid core centre peptide, wild type (amino acids 382-402)], in data set [3], the binding result is given as “binds”.

B1: Purified full-length Cdc19, wild type (enzyme)
chain: MSRLERLTSLNVVAGSDLRRTSIIGTIGPKTNNPETLVALRKAGLNIVRMNFSHGSYEYHKSVIDNARKSEELYPGRPLAIALDTKGPEIRTGTTTNDVDYPIPPNHEMIFTTDDKYAKACDDKIMYVDYKNITKVISAGRIIYVDDGVLSFQVLEVVDDKTLKVKALNAGKICSHKGVNLPGTDVDLPALSEKDKEDLRFGVKNGVHMVFASFIRTANDVLTIREVLGEQGKDVKIIVKIENQQGVNNFDEILKVTDGVMVARGDLGIEIPAPEVLAVQKKLIAKSNLAGKPVICATQMLESMTYNPRPTRAEVSDVGNAILDGADCVMLSGETAKGNYPINAVTTMAETAVIAEQAIAYLPNYDDMRNCTPKPTSTTETVAASAVAAVFEQKAKAIIVLSTSGTTPRLVSKYRPNCPIILVTRCPRAARFSHLYRGVFPFVFEKEPVSDWTDDVEARINFGIEKAKEFGILKKGDTYVSIQGFKAGAGHSNTLQVSTV
As to B1, in data set [4], the stoichiometry N (usually the number of molecules, sites or subunits per partner or assembly) was determined as 4. As to AREAEAAIYRLQLFEELRRLA [PKM2 amyloid core centre peptide H391R (amino acids 382-402)], the binding result in data set [3] is reported as “binds”.

B2: Purified full-length PKM2 H391R (enzyme)
chain: not shown
Turning to B2, the binding result in data set [5] is given as “binds”. For TSTTETVAASAVAAVFE [Cdc19 amyloid core peptide, wild type (amino acids 376-392)], the binding result in data set [1] is “binds”.
